Target: alpha-enolase (baker's yeast) (baker's yeast) (UniProt P00924)
Assay: cross-linking; 1 mg/ml alpha-enolase in PBS with BVSS-Me, BVSS-Et, BVSS-Ph, Alkyne-BVSC or DSBSO (1 mM, 1 h, 37 °C; DSBSO 30 min RT); SDS-PAGE, Coomassie stain; DMSO as negative control

- stoichiometry N: 2
Substance: alpha-enolase (baker's yeast) (from UniProt P00924 1-437) (enzyme)

Source: paper PMC12682122
